The data set deals with Nucleocapsid protein (N) (SARS-CoV-2, UniProt P0DTC9 1-419). Briefly: EMSA; no sdAb; Hill fixed at 5. Particulars: protein: recombinant, tags: His6 or His6-MBP N-terminal fusion vector, TEV cleavage, chain copies: 2. Background: Mobility shift assays separate free from complexed probe on a gel.

B1: 7mer dsRNA (dsRNA)
RNA 1: CACUGAC
RNA 2: GUCAGUG
Regarding B1, the Kd (commonly the concentration at which binding is half-saturated) (label: 5'-FAM on strand 1, blunt) was found to be 480 ± 30 nM.

Consider CACUGAC (ssRNA) [7mer ssRNA], for which, under “label: 5'-FAM, single strand”, the Kd is 560 ± 60 nM.

Values taken from publication PMC8351461.
